Target: phenylalanine and glycine rich nucleoporins (FG-Nups)
Experiment: cell-based or functional assay

cells in which the accumulation of TDP-43 and Nup62 in cytoplasmic GR aggregates is abolished: 60 % of cells
Substance: FLAG-KPNB1 H1-8^WT (from UniProt Q14974 1-361)

Source: US20240226230A1
